Experimental data as given in the MegaScale stability set (Tsuboyama et al. 2023).

B1: 1ZHC (parent)
chain: HEFRDEISVLKANNPHFDKIFEKHNQLDDDIKTAEQQNASDAEVSHMKKQKLKLKDEIHSMIIEYREK

Variants of: B1
Assay: folding stability dG (cDNA display proteolysis); higher = more stable
Conditions: PBS, room temperature

Q: With HEFRDEISVLKANNPHFDKIFENHNQLDDDIKTAEQQNASDAEVSHMKKQKLKLKDEIHSMIIEYREK [K23N] as the variant, how does the “folding stability dG” value read?
A: 0.464 kJ/mol

Q: With HEFRDEISVLKANNPHFDKIFEDHNQLDDDIKTAEQQNASDAEVSHMKKQKLKLKDEIHSMIIEYREK [K23D] as the variant, how does the “folding stability dG” value read?
A: 0.611 kJ/mol

Q: For HEFRDEISVLKANNPHFDKIFEAHNQLDDDIKTAEQQNASDAEVSHMKKQKLKLKDEIHSMIIEYREK [K23A], which “folding stability dG” value is on record?
A: 3.29 kJ/mol

Q: Which “folding stability dG” value does the source give for HEFRDEISVLKANNPHFDKIFEMHNQLDDDIKTAEQQNASDAEVSHMKKQKLKLKDEIHSMIIEYREK [K23M] here?
A: 6.6 kJ/mol

Q: For HEFRDEISVLKANNPHFDKIFECHNQLDDDIKTAEQQNASDAEVSHMKKQKLKLKDEIHSMIIEYREK [K23C], which “folding stability dG” value is on record?
A: 3.71 kJ/mol

Q: For HEFRDEISVLKANNPHFDKIFELHNQLDDDIKTAEQQNASDAEVSHMKKQKLKLKDEIHSMIIEYREK [K23L], which “folding stability dG” value is on record?
A: 6.47 kJ/mol

Q: Which “folding stability dG” value does the source give for HEFRDEISVLKANNPHFDKIFEHHNQLDDDIKTAEQQNASDAEVSHMKKQKLKLKDEIHSMIIEYREK [K23H] here?
A: 1.62 kJ/mol

Q: With HEFRDEISVLKANNPHFDKIFEFHNQLDDDIKTAEQQNASDAEVSHMKKQKLKLKDEIHSMIIEYREK [K23F] as the variant, how does the “folding stability dG” value read?
A: -0.0795 kJ/mol

Q: With HEFRDEISVLKANNPHFDKIFEIHNQLDDDIKTAEQQNASDAEVSHMKKQKLKLKDEIHSMIIEYREK [K23I] as the variant, how does the “folding stability dG” value read?
A: 3.83 kJ/mol

Q: With HEFRDEISVLKANNPHFDKIFEEHNQLDDDIKTAEQQNASDAEVSHMKKQKLKLKDEIHSMIIEYREK [K23E] as the variant, how does the “folding stability dG” value read?
A: 4.85 kJ/mol

Q: Which “folding stability dG” value does the source give for HEFRDEISVLKANNPHFDKIWEKHNQLDDDIKTAEQQNASDAEVSHMKKQKLKLKDEIHSMIIEYREK [F21W] here?
A: 7.51 kJ/mol

Q: For HEFRDEISVLKANNPHFDKISEKHNQLDDDIKTAEQQNASDAEVSHMKKQKLKLKDEIHSMIIEYREK [F21S], which “folding stability dG” value is on record?
A: 0.632 kJ/mol

Q: Which “folding stability dG” value does the source give for HEFRDEISVLKANNPHFDKICEKHNQLDDDIKTAEQQNASDAEVSHMKKQKLKLKDEIHSMIIEYREK [F21C] here?
A: 2.85 kJ/mol

Q: For HEFRDEISVLKANNPHFDKITEKHNQLDDDIKTAEQQNASDAEVSHMKKQKLKLKDEIHSMIIEYREK [F21T], which “folding stability dG” value is on record?
A: -0.778 kJ/mol

Q: Which “folding stability dG” value does the source give for HEFRDEISVLKANNPHFDKIIEKHNQLDDDIKTAEQQNASDAEVSHMKKQKLKLKDEIHSMIIEYREK [F21I] here?
A: 1.56 kJ/mol

Q: For HEFRDEISVLKANNPHFDKIVEKHNQLDDDIKTAEQQNASDAEVSHMKKQKLKLKDEIHSMIIEYREK [F21V], which “folding stability dG” value is on record?
A: 1.1 kJ/mol

Q: With HEFRDEISVLKANNPHFDKILEKHNQLDDDIKTAEQQNASDAEVSHMKKQKLKLKDEIHSMIIEYREK [F21L] as the variant, how does the “folding stability dG” value read?
A: 2.32 kJ/mol

Q: Which “folding stability dG” value does the source give for HEFRDEISVLKANNPHFDKIYEKHNQLDDDIKTAEQQNASDAEVSHMKKQKLKLKDEIHSMIIEYREK [F21Y] here?
A: 4.01 kJ/mol

Q: Which “folding stability dG” value does the source give for HEFRDEISVLKANNPHFDKIHEKHNQLDDDIKTAEQQNASDAEVSHMKKQKLKLKDEIHSMIIEYREK [F21H] here?
A: -0.0711 kJ/mol

Q: Which “folding stability dG” value does the source give for HEFRDEISVLKANNPHFDKIMEKHNQLDDDIKTAEQQNASDAEVSHMKKQKLKLKDEIHSMIIEYREK [F21M] here?
A: 1.85 kJ/mol

Q: Which “folding stability dG” value does the source give for HEFRDEISVLKANNPHFDKVFEKHNQLDDDIKTAEQQNASDAEVSHMKKQKLKLKDEIHSMIIEYREK [I20V] here?
A: 1.93 kJ/mol

Q: With HEFRDEISVLKANNPHFDKYFEKHNQLDDDIKTAEQQNASDAEVSHMKKQKLKLKDEIHSMIIEYREK [I20Y] as the variant, how does the “folding stability dG” value read?
A: -0.49 kJ/mol

Q: Which “folding stability dG” value does the source give for HEFRDEISVLKANNPHFDKIFHKHNQLDDDIKTAEQQNASDAEVSHMKKQKLKLKDEIHSMIIEYREK [E22H] here?
A: 1.64 kJ/mol

Q: Which “folding stability dG” value does the source give for HEFRDEISVLKANNPHFDKIFQKHNQLDDDIKTAEQQNASDAEVSHMKKQKLKLKDEIHSMIIEYREK [E22Q] here?
A: 6.02 kJ/mol

Q: For HEFRDEISVLKANNPHFDKIFFKHNQLDDDIKTAEQQNASDAEVSHMKKQKLKLKDEIHSMIIEYREK [E22F], which “folding stability dG” value is on record?
A: 3.2 kJ/mol

Q: With HEFRDEISVLKANNPHFDKIFNKHNQLDDDIKTAEQQNASDAEVSHMKKQKLKLKDEIHSMIIEYREK [E22N] as the variant, how does the “folding stability dG” value read?
A: 5.59 kJ/mol

Q: With HEFRDEISVLKANNPHFDKIFYKHNQLDDDIKTAEQQNASDAEVSHMKKQKLKLKDEIHSMIIEYREK [E22Y] as the variant, how does the “folding stability dG” value read?
A: 2.44 kJ/mol

Q: Which “folding stability dG” value does the source give for HEFRDEISVLKANNPHFDKIFSKHNQLDDDIKTAEQQNASDAEVSHMKKQKLKLKDEIHSMIIEYREK [E22S] here?
A: 4.97 kJ/mol

Q: For HEFRDEISVLKANNPHFDKIFVKHNQLDDDIKTAEQQNASDAEVSHMKKQKLKLKDEIHSMIIEYREK [E22V], which “folding stability dG” value is on record?
A: 1.65 kJ/mol

Q: For HEFRDEISVLKANNPHFDKIFIKHNQLDDDIKTAEQQNASDAEVSHMKKQKLKLKDEIHSMIIEYREK [E22I], which “folding stability dG” value is on record?
A: 2.65 kJ/mol

Q: Which “folding stability dG” value does the source give for HEFRDEISVLKANNPHFDKIFRKHNQLDDDIKTAEQQNASDAEVSHMKKQKLKLKDEIHSMIIEYREK [E22R] here?
A: 6.59 kJ/mol

Q: With HEFRDEISVLKANNPHFDKIFMKHNQLDDDIKTAEQQNASDAEVSHMKKQKLKLKDEIHSMIIEYREK [E22M] as the variant, how does the “folding stability dG” value read?
A: 5.32 kJ/mol

Q: Which “folding stability dG” value does the source give for HEFRDEISVLKANNPHFDKIFAKHNQLDDDIKTAEQQNASDAEVSHMKKQKLKLKDEIHSMIIEYREK [E22A] here?
A: 5.52 kJ/mol

Q: For HEFRDEISVLKANNPHFDKIFDKHNQLDDDIKTAEQQNASDAEVSHMKKQKLKLKDEIHSMIIEYREK [E22D], which “folding stability dG” value is on record?
A: 0.828 kJ/mol

Q: For HEFRDEISVLKANNPHFDKIFKKHNQLDDDIKTAEQQNASDAEVSHMKKQKLKLKDEIHSMIIEYREK [E22K], which “folding stability dG” value is on record?
A: 6.56 kJ/mol

Q: For HEFRDEISVLKANNPHFDKIFCKHNQLDDDIKTAEQQNASDAEVSHMKKQKLKLKDEIHSMIIEYREK [E22C], which “folding stability dG” value is on record?
A: 3.03 kJ/mol

Q: Which “folding stability dG” value does the source give for HEFRDEISVLKANNPHFDKIFLKHNQLDDDIKTAEQQNASDAEVSHMKKQKLKLKDEIHSMIIEYREK [E22L] here?
A: 4.36 kJ/mol

Q: For HEFRDEISVLKANNPHFDKIFGKHNQLDDDIKTAEQQNASDAEVSHMKKQKLKLKDEIHSMIIEYREK [E22G], which “folding stability dG” value is on record?
A: 4.1 kJ/mol

Q: For HEFRDEISVLKANNPHFDKIFWKHNQLDDDIKTAEQQNASDAEVSHMKKQKLKLKDEIHSMIIEYREK [E22W], which “folding stability dG” value is on record?
A: 1.75 kJ/mol

Q: With HEFRDEISVLKANNPHFDKIFTKHNQLDDDIKTAEQQNASDAEVSHMKKQKLKLKDEIHSMIIEYREK [E22T] as the variant, how does the “folding stability dG” value read?
A: 5.29 kJ/mol
